Consider 13 molecules from patent publication US20230095569A1 (ANTENGENE BIOLOGICS, published 2023).

Experiment [1] addresses T1, human Claudin18.2 (CLDN18.2) (human, UniProt P56856 1-261).
T1 construct: the cell line is named under assay; also called human Claudine18.2; hClaudin18.2
As to the kind of experiment: FACS on CHOK1-18.2 cells.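 Note: antibody binding to the cells detected with a fluorescently labelled secondary antibody and read out as median fluorescence intensity by flow cytometry.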
Experimental: (§1) The specificity and cross-reactivity of these subclones were confirmed with FACs analysis. […] Fluorescent dye-conjugated secondary antibody was used to detect the binding of the primary antibody with the cells. Median fluorescence intensity (MFI) was measured by FACs analysis.

Experiment [2] concerns the target T2, human Claudin18.1 (CLDN18.1) (human, UniProt P56856 1-261).
T2 construct: whole, on cells; also called human Claudine18.1
Kind of experiment: FACS on CHOK1-18.1 cells.
Experimental: as §1

The target of experiment [3] is T2, human Claudin18.1 (CLDN18.1). As to the kind of experiment: FACS on CHOK1-18.1 cells. This is another data set of the same source.
Experimental: as §1
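Throughout, for result: antibody binding to cells detected with a fluorescently labelled secondary antibody, read out as median fluorescence intensity (MFI) by flow cytometry.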

B1: Ab36 (antibody, V domains shown)
VH: EVKLEESGGGLVQPGGSMKLSCVASGFTFSNYWMNWVRQSPEKGLEWVAQIRLKSDNYATHYAESVKGMFTISRDDSKSSVYLQMNNLRAEDTGIYYCTAGGDYWGQGTTLTVSS
VL: DIVMTQSQKFMSTTVGDRVSITCKASQNVGTAVAWYHQKPGQSPKLLIYSASNRYTGVPDRFIGSGSGTDFTLTISNVQSEDLGNYFCQQYINYLLTFGSGTKLEIK
notes: mouse monoclonal (hybridoma)
B1: in experiment [1], the “FACS MFI” value amounted to 18000.

B2: Ab37 (antibody, V domains shown)
VH: EVKLEESGGGLVQPGGSMKLSCVASGFTFSNYWMNWVRQYPEQGLEWVAQIRLNSDNYATHYAESVKGRFTISRDDSRSTVYLQMNNLRAEDTGIYYCTGGGEYWGQGTTLTVSS
VL: DIVMTQSQKFMSTTIGDRVSITCKASQNVDTAVAWYQQKPGQSPKLLIYSASTRYTGVPDRFTGSGSGTDFTLTISNMQSEDLADYFCQQYISYQLTFGAGTKLELK
notes: mouse monoclonal (hybridoma)
Turning to B2, the “FACS MFI” value came out at 4590 in experiment [2] and 15200 in experiment [1].

B3: Ab03 (antibody, V domains shown)
VH: EVQLQQSGPELVKPGASVKIACKASGYTFTDYNMDWVKQSHGKSLEWIGNINSYYGGTIYNQKFKGKATLTVDKSSSTAYMVLRSLTSEDNAVYYCARPHLGNALDYWGQGTSITVSS
VL: DIVVTQSPSSLTVTPGEKVTMSCKSSQSLFNSGNQKNYLSWYQQNPGQPPKLLIYWASTRQSGVPDRFTGSGSGTDFTLTISSVQAEDLAGYYCQNDYIFPLTFGAGTKLELK
notes: mouse monoclonal (hybridoma)
For B3, the entries for the “FACS MFI” value in experiment [2] and in experiment [1] were 95.6 and 1960, respectively. In addition, the binding result in experiment [3] was “no binding”.

B4: Ab01 (antibody, V domains shown)
VH: DVQLQESGPGLVKPSQSLSLTCSVTGYSITSGYYWNWIRQFPGNKLEWMGYITYDGSNNYNPSLKNRISITRDTSKNQFFLKLNSVTTEDAATYFCARDPNYYGTTLPAWFVYWGQGTLVTVSA
VL: DIVVTQSHKFMSTSVGDRVSITCKASQDVGTAVAWYQQKPGQSPKLLIYWASTRHTGVPDRFTGSGSGTDFTLTISNVQSEDLTDYFCQQYSSYVTFGAGTKLELK
notes: mouse monoclonal (hybridoma)
Consider B4, for which the “FACS MFI” value in experiment [2] was found to be 7250; in experiment [1], 12300.

B5: Ab21 (antibody, V domains shown)
VH: EVMLVESGGGLVKPGGSLKLSCAASGFTFSSYTMSWVRQTPEKRLEWVATIIGGYGNTYYVDSVKGRFTISRDSAKNTLYLQMISLRSEDTALYYCTRLGQTQRNAMDYWGQGTSVTVSS
VL: DILMTQSPSSLSVSAGEKVTMSCKSSQSLLNSGNQKNYLAWYQQKPGQPPKLLIYGASTRESGVPDRFTGSGSGTDFTLTISSVQAEDLAVYYCQNDYYYPFTFGAGTKLEL
notes: mouse monoclonal (hybridoma)
For B5, the “FACS MFI” value in experiment [2] turned out to be 79.4; in experiment [1], 10100. In experiment [3], the binding result is “no binding”.

B6: Ab26 (antibody, V domains shown)
VH: EVMLVESGGGLVKPGGSLKLSCTASGFTFRSYTMSWVRQTPEKRLEWVATITGGGGNTYFLDSVKGRFTFSRDNAKNALYLQMNSLRSEDTALYYCARLGQTQRNAMDYWGQGTSVTVSS
VL: DIVMTQSPSSLSVSAGEKVTMSCKSSQSLLNSGNQMNYLAWYQQKPGQPPKLLIYGASTRESGVPDRFTGSGSGTDFTLTISSVQAEDLAIYYCQNDHTYPLTFGAGTKLEL
notes: mouse monoclonal (hybridoma)
Consider B6, for which the “FACS MFI” value is 80.8 in experiment [2] and 9730 in experiment [1]. For the same molecule, the binding result in experiment [3] was “no binding”.

B7: Ab23 (antibody, V domains shown)
VH: EVMLVESGGGLVKPGGSLKLSCVASGFTFSSYTMSWVRQTPEKRLEWVATLSVVGGNTYYVDSVKGRFTISRDKAKNTLYLQMSSLRSEDTALYYCARLGQTQRNAMDYWGQGTSVTVSS
VL: DIVMTQSPSSLSVSAGEKVTMSCKSSQSLLNSGNQKNYLAWYQQKPGQPPKLLIYGASTRESGVPDRFTGSGSGTDFTLTISSVQAEDLAVYYCQNDYSYPLTFGAGTKLEL
notes: mouse monoclonal (hybridoma)
Take B7: the “FACS MFI” value in experiment [2] was found to be 82.3; in experiment [1] it was 8600. In experiment [3], the binding result is given as “no binding”.

B8: Ab22 (antibody, V domains shown)
VH: EVMLVESGGGLVKPGGSLKLSCAASGFTFSSYTMSWVRQTPEKRLEWVATIIGGYGNTYYADSVKGRFTISRDSAKNTLYLQMISLRSEDTALYYCTRLGQTQRNAMDYWGQGTSVTVSS
VL: DILMTQSPSSLSVSAGEKVTMSCKSSQSLLNSGNQKNYLAWYQQKPGQPPKLLIYGASTRESGVPDTFTGSGSGTDFTLTISSVQAEDLAVYYCQNDYYYPFTFGAGTKLEL
notes: mouse monoclonal (hybridoma)
On to B8, for which the “FACS MFI” value in experiment [2] was 82.3; in experiment [1], 9020. Also, in experiment [3], the binding result is “no binding”.

B9: Ab20 (antibody, V domains shown)
VH: EVMLVESGGGLVKPGGSLKLSCVASGFTFSSYTMSWVRQTPEKRLEWVATIIGGYGNTYYSDSVKGRITISRDSAKNTLYLQMISLRSEDTALYYCTRLGQTQRNAMDYWGQGTSVTVSS
VL: DILMTQSPSSLSVSAGEKVTMNCKSSQSLLNSGNQKNYLAWYQQKPGQPPKLLIYGASTRESGVPDRFTGSGSGTDFTLTISSVQAEDLAVYYCQNDYYYPFTFGAGTKLEL
notes: mouse monoclonal (hybridoma)
For the molecule B9, the figures for the “FACS MFI” value in experiment [2] and in experiment [1] were 82.3 and 7580, respectively. Besides, in experiment [3], the binding result is reported as “no binding”.

B10: Ab04 (antibody, V domains shown)
VH: EVQLQQSGPELVKPGASVKMSCMASGYTFTDYNIHWVKRSHGSRLEWIGYISPISGGAGYNQKFMDKATLTVDKSSNTAYMELRSLTSEDSAVYYCTRGDYWGQGTTLTVSS
VL: DIVMTQSPSSLAVTVGEKVTMSCKSSQSLLNSGNQKNYLTWYQQKPGQPPKLLIYWASTRKSGVPDRFTGSGSGTDFTLTISSVQAEDLGIYYCLNDYGFPLTFGAGSKLELK
notes: mouse monoclonal (hybridoma)
As to B10, the entries for the “FACS MFI” value in experiment [2] and in experiment [1] were 6920 and 17600, respectively.

B11: Ab38 (antibody, V domains shown)
VH: QIQLVQSGPELKKPGETVKISCKASGYTFTNYGMSWVKQAPGKGLKWMGWINTYSGVPTYADDFKGRFVFSLEASASTAYLQINNLKNEDAATYFCSRWSGPDPLEDHWGQGTTLTVSS
VL: QIVLTQSPAIMSASPGEKVTMTCTASLSLNYIHWYRQRSGTSPKRWIYDTSKLASGVPSRFSGSGSGTSYSLTISSMEAEDAATYYCQQWSSNPWTFGGGTKLEIK
notes: mouse monoclonal (hybridoma)
Consider B11, for which the “FACS MFI” value in experiment [1] turned out to be 15700.

B12: Ab27 (antibody, V domains shown)
VH: QVQLQQSGAELVRPGSSVKISCKASGYAFSNYWMNWVKQRPGQGLEWIGQIYPGNGDTNYNGKFKGKATLTADKSSTTAYIQLSSLTSEDSAVYFCTRIYYGNSFAYWGQGTLVTVS
VL: DIVMTQSPSSLTVTAGERVTMSCKSSQSLLNSGNQKNYLTWYQQKPGQPPKLLIYWASTRESGVPDRFTGSGSGTDFTLTISRVQAQDLAVYYCQNDYYYPLTFGAGTKLELK
notes: mouse monoclonal (hybridoma)
Regarding B12, the “FACS MFI” value in experiment [2] worked out at 97; in experiment [1], 7150. For the same molecule, in experiment [3], the binding result is “no binding”.

B13: Ab28 (antibody, V domains shown)
VH: QVQLKESGPGLVAPSQSLSITCTVSGFSLTSHGVHWVRQPPGKGLEWLGVIWAGGSINFNSALMSRLSISKDNSKNQVFLKMNSLQSDDTAMYYCARDYYYGIGLDYWGQGTTLTVS
VL: DIVMTQSPSSLSVSAGEKVTMSCKSSQSLLNSGNQKNYLAWYQQKPGQPPKLLIYGASTRESGVPDRFTGSGSGTDFTLTISSVQAEDLAVYYCQNDYYYPFTFGSGTKLEIK
notes: mouse monoclonal (hybridoma)
With B13, the “FACS MFI” value in experiment [2] stood at 206; in experiment [1], 8880. Besides, the binding result in experiment [3] is listed as “no binding”.
